Holding throughout (assay): SPR; Biacore 2000; biotinylated peptides (about 250 RU) held on streptavidin cells, AR LBD injected at 10 μM, 5 μM, 1 μM and 300 nM, 10 μl/min; HBS-P (10 mM HEPES pH 7.4, 150 mM NaCl, 0.005% Surfactant P20); SMRT2 peptide cell subtracted as background; two-state conformational change model, Kd calculated from rate constants
Holding throughout (conditions): both partners purified

The target in experiment [1] is T1, biotinylated LxxLL peptide (biotin tag attached through the additional C-terminal SGSGK).
T1 construct: also in PDB 1T7F; The SGSGK-biotin form is told for the FRET assay; source: synthetic peptide (Anaspec)

Experiment [2] addresses T2, biotinylated FxxLW peptide (biotin tag attached through the additional C-terminal SGSGK).
T2 construct: also in PDB 1T79; The SGSGK-biotin form is told for the FRET assay; source: synthetic peptide (Anaspec)

The target in experiment [3] is T3, biotinylated FxxLF peptide (biotin tag attached through the additional C-terminal SGSGK).
T3 construct: also in PDB 1T7R; The SGSGK-biotin form is told for the FRET assay; source: synthetic peptide (Anaspec)

The values that follow come from paper PMC509409, “Recognition and Accommodation at the Androgen Receptor Coactivator Binding Interface” (PLoS Biology, 2004).

B1: androgen receptor ligand-binding domain (AR LBD), DHT-bound (domain or fragment)
chain: GSPGISGGGGGSHIEGYECQPIFLNVLEAIEPGVVCAGHDNNQPDSFAALLSSLNELGERQLVHVVKWAKALPGFRNLHVDDQMAVIQYSWMGLMVFAMGWRSFTNVNSRMLYFAPDLVFNEYRMHKSRMYSQCVRMRHLSQEFGWLQITPQEFLCMKALLLFSIIPVDGLKNQKFFDELRMNYIKELDRIIACKRKNPTSCSRRFYQLTKLLDSVQPIARELHQFTFDLLIKSHMVSVDFPEMMAEIISVQVPKILSGKVKPIYFHTQ
For the molecule B1, the Kd in experiment [1] is 1800 nM; in experiment [2] it was 920 nM; in experiment [3] it was 1100 nM.
